Laboratory results: paper PMC11398462 (bioRxiv, 2024)

Biological target: the molecule itself
Test: SEC

B1: Lipo-YcjN (recombinantly overexpressed lipidated YcjN, heterogeneously diacylated at cysteine 21) (natural protein, E. coli K-12, UniProt P76042 21-430, looked up)
chain: CKEENKTNVSIEFMHSSVEQERQAVISKLIARFEKENPGITVKQVPVEEDAYNTKVITLSRSGSLPEVIETSHDYAKVMDKEQLIDRKAVATVISNVGEGAFYDGVLRIVRTEDGSAWTGVPVSAWIGGIWYRKDVLAKAGLEEPKNWQQLLDVAQKLNDPANKKYGIALPTAESVLTEQSFSQFALSNQANVFNAEGKITLDTPEMMQALTYYRDLTANTMPGSNDIMEVKDAFMNGTAPMAIYSTYILPAVIKEGDPKNVGFVVPTEKNSAVYGMLTSLTITAGQKTEETEAAEKFVTFMEQADNIADWVMMSPGAALPVNKAVVTTATWKDNDVIKALGELPNQLIGELPNIQVFGAVGDKNFTRMGDVTGSGVVSSMVHNVTVGKADLSTTLQASQKKLDELIEQH
modifications: cysteine 21 diacylated, acyl chain compositions [16:0, 16:0] and [16:0, 18:1]
B1: binds.
